Experiments:
[1] = system: G361 human melanoma xenografts; experiment: G361 melanoma xenograft growth in nude mice; format: in vivo; settings: sActRIIB 20 mg/kg SC 1x/week from day 14
Procedure: G361 and 5637 xenografts. 5×10^6 G361 melanoma cells and 5637 bladder carcinoma cells, respectively, were inoculated SC into individual athymic nu/nu mice (Harlan Inc). Treatment was initiated 4 days after 5637 implantation and 14 days after G361 implantation, when the tumor volumes reached 130 mm^3−150 mm^3. 5637-implanted mice received PBS or activin-A antibody (10 mg/kg, SC, 2×/week). G361-implanted mice received PBS or sActRIIB (20 mg/kg, SC, 1×/week).
For all xenograft experiments, the tumor sizes were measured longitudinally by using an electronic caliper. Immediately prior to the 1st dose, the tumor-bearing mice were randomized to ensure even distribution in tumor sizes across different groups. Tumor volumes (mm^3) were calculated as tumor length (mm)×tumor width (mm)×tumor height (mm). Tumor weights were determined by necropsy.

[2] = sActRIIB single dose, withdrawal and re-administration in female Inhα KO mice: body weight; format: in vivo, mouse
Procedure: Eleven-to-fourteen-week-old female Inhα KO mice with body weight from 19.41 to 26.82 grams were subcutaneously (SC) injected with either 30 mg/kg sActRIIB or PBS. Age-matched WT littermate control mice were injected with PBS and served as baseline controls. The study ended by necropsy 2 weeks after injections. Two cohorts of mice were used in the study. Eleven-to-thirteen-week-old female Inhα KO mice with body weight from 17.7 to 27.4 grams were SC injected with either 30 mg/kg sAcLRIIB or PBS. Age-matched WT littermate control mice were injected with PBS and served as baseline controls. The withdrawal lasted for 8 weeks. At the end of the withdrawal, the sActRIIB treated mice were divided by balanced body weight into 2 groups (Group 3 and Group 4).
Group 2 and Group 3 were euthanized to examine the ovarian tumors. Group 4 received another dose of 30 mg/kg sActRIIB and the mice were euthanized together with the WT mice 4 weeks later (total 12 weeks). Mouse body weights were recorded once per week up to 12 weeks. For necropsy, mice were euthanized in a CO2 chamber. Normal ovaries in WT mice and ovarian tumors in Inhα KO mice were collected and weighed. All results were expressed as the mean±standard error of the mean (SEM). Statistical significance of difference between groups was analyzed using Student's 2-tailed t-test on MS Excel 5.0 software. […]

[3] = system: TOV-21G ovarian xenograft tumors; experiment: sActRIIB and doxorubicin in TOV-21G tumor-bearing nude mice: tumor size and weight; format: in vivo, human; settings: sActRIIB 10 mg/kg SC 1x/week, DOX 2 mg/kg IP 1x/week; 4-week study
Procedure: The objective of the present study was to examine the effect of pharmacological administration of sActRIIB, doxorubicin (dox), and sActRIIB plus doxorubicin, respectively, on body weight, tumor growth and muscle mass in nude mice implanted with TOV-21G ovarian xenograft tumors. Eight-week-old female Athymic nude mice were SC injected with 0.2 mL of 5×10^6 TOV-21G cells into the left site of the lower flank of the mice. After 10 days of tumor implantation, the mice were divided into 4 groups by body weight and tumor size and then treated with vehicle, sActRIIB, doxorubicin or the combination of sActRIIB and doxorubicin. In addition, a group of non-tumor bearing mice was used as normal control and received PBS.
Mice were weighed weekly. Body weight data were recorded longitudinally. Tumor size was measured longitudinally by using an electronic caliper. The following formula was used to calculate actual tumor volume (Tomayko M and Reynolds C, 1989): (Volume of a rectangular solid tumor: Tumor volume (mm^3)=length (mm)×width (mm)×height (mm) of tumor). At the end of the study, mice in all groups were subjected to terminal necropsy and lean carcass weight (excluding skin, adipose tissue, internal organs, and head) was determined by using standard anatomical dissection procedures. […] All results were expressed as the mean±SEM (standard error of the mean). […]

[4] = system: Ang-2 mRNA; experiment: Northern blot of Ang-2 mRNA in inh-KO tumors; format: in vivo, mouse; settings: ovarian and testicular tumors, inh-KO mice
Procedure: Total RNA was isolated from individual tissue samples after homogenization in Trizol (Invitrogen). A pool of 10 μg RNA for each group containing equal amounts of total RNA isolated from individual animals was subjected to Northern blot analysis. The northern probes used for βA and Ang-2 were generated by using RT-PCR (Phusion, Biolabs). βA primer set: 5′-CCCTTGCTTTGGCTGAGAGGA-3′ (SEQ ID NO: 294) and 5′-TC ACA GGT CGT CGT AGG TCG-3′ (SEQ ID NO: 295); Ang-2 primer set: 5′-TGT GCC GGG GAG AAG AG (SEQ ID NO: 296) and 5′-TACAGTAGTGGGTTGAGGTTC-3′ (SEQ ID NO: 297). To normalize the expression, northern blot membranes were re-probed with β-actin.

B1: sActRIIB: extracellular domain of human activin type-2B receptor fused to IgG2 Fc; full length SEQ ID NO: 21 (Table 9) (protein, listed as Homo sapiens)
chain: ETRWCIYYNANWELERTNQSGLERCEGEQDKRLHCYASWRNSSGTIELVKKGCWLDDFNCYDRQECVATEENPQVYFCCCEGNFCNERFTHLPEAGGPEVTYEPPPTAPTGGGGSVECPPCPAPPVAGPSVFLFPPKPKDTLMISRTPEVTCVVVDVSHEDPEVQFNWYVDGVEVHNAKTKPREEQFNSTFRVVSVLTVVHQDWLNGKEYKCKVSNKGLPAPIEKTISKTKGQPREPQVYTLPPSREEMTKNQVSLTCLVKGFYPSDIAVEWESNGQPENNYKTTPPMLDSDGSFFLYSKLTVDKSRWQQGNVFSCSVMHEALHNHYTQKSLSLSPGK
growth rate and size of G361 xenografts [1]: significantly decreased the growth rates and sizes | body weight, first 4 weeks after single dose ([2]; 30 mg/kg SC single dose): sustained weight gain in Inhα KO mice that exceeded the level of WT littermate control | body weight after re-administration at week 8 (up to week 12) ([2]; second single dose 30 mg/kg): stimulated further weight gain | tumor size and tumor weight vs vehicle-treated TOV-21G group [3]: capable of inhibiting TOV-21G tumor growth | Ang-2 mRNA expression in tumors [4]: inhibited its overexpression
